# PMC4199913 (The FEBS journal, 2014)
# B1: MaTrxR (Methanosarcina acetivorans C2A) (protein)
# chain: MNSFLFSGGNMYDLIIIGGGPAGLAAGIYAVRFGLDTLVLEKSEISGQISMSDIVENYPGFPSISGLELMEKYRTHAQEVGVKTKITEVLSVRTEGAKKIVSTDSGDLEAKTLIIATGANPKHLGVPGEKEFISKGVSYCAICDGPFFKNKTVVVVGGGNSAVTDALLLSKVAQNVYLIHRRDRLKAAKVLQDRALATPNIEFILNTLVQEIAGSREGVKKVEKVILQDLNSKESRELSTNGVFIYVGIQPNTEFVNVEKNNEGFIITNRWMETSEKGIYAAGDCRDTPIWQLVAAVRDGAIAATAANEYIESLK
# Tests used:
# [1] = biological target: MaTrx6Δsp (Methanosarcina acetivorans, UniProt Q8TIA1); assay: turbidimetric insulin reduction, […] nm; type: biochemical; conditions: 0.33 mM DTT, 0.13 mM insulin, 100 mM KPO4 pH 6.8, anaerobic
# [2] = biological target: MaTrx2 (Methanosarcina acetivorans, UniProt Q8TL30); assay: turbidimetric insulin reduction, […] nm; type: biochemical; conditions: 0.33 mM DTT, 0.13 mM insulin, 100 mM KPO4 pH 6.8, anaerobic
# [3] = biological target: MaTrx7 (Methanosarcina acetivorans, UniProt Q8TR15); assay: turbidimetric insulin reduction, […] nm; type: biochemical; conditions: 0.33 mM DTT, 0.13 mM insulin, 100 mM KPO4 pH 6.8, anaerobic
# [4] = substrate: NC(=O)C1=CN([C@@H]2O[C@H](COP(=O)(O)OP(=O)(O)OC[C@H]3O[C@@H](n4cnc5c(N)ncnc54)[C@H](O)[C@@H]3O)[C@@H](O)[C@H]2O)C=CC1; assay: purified protein; type: biochemical, Methanosarcina acetivorans; conditions: 1 mM DTNB, 0.5 µM MaTrxR, 50 mM Tris-HCl 150 mM NaCl pH 7.2, anaerobic
# [5] = substrate: NC(=O)C1=CN([C@@H]2O[C@H](COP(=O)(O)OP(=O)(O)OC[C@H]3O[C@@H](n4cnc5c(N)ncnc54)[C@H](OP(=O)(O)O)[C@@H]3O)[C@@H](O)[C@H]2O)C=CC1; assay: purified protein; type: biochemical, Methanosarcina acetivorans; conditions: 1 mM DTNB, 0.5 µM MaTrxR, 50 mM Tris-HCl 150 mM NaCl pH 7.2, anaerobic
Molecule,"turbidimetric insulin reduction, 650 nm [1]","turbidimetric insulin reduction, 650 nm [2]","turbidimetric insulin reduction, 650 nm [3]",Km [4] [µM],kcat [4] [s⁻¹],kcat/Km [4] [M⁻¹ s⁻¹],Km [5] [µM],kcat [5] [s⁻¹],kcat/Km [5] [M⁻¹ s⁻¹]
OC(CS)C(O)CS (stereo not drawn) [DTT],All three purified MaTrxs exhibited both DTT- and lipoamide-dependent insulin reduction activity,All three purified MaTrxs exhibited both DTT- and lipoamide-dependent insulin reduction activity,All three purified MaTrxs exhibited both DTT- and lipoamide-dependent insulin reduction activity,–,–,–,–,–,–
B1,–,–,–,736 ± 57,0.817,1120,6.3 ± 0.5,0.65,103000
